In test [1] the target is AP1-mV reporter in Arabidopsis flowers (Arabidopsis thaliana) (UniProt P35631). The test can be described thus: FRET or BRET; FLIM-FRET (OPA) in young flowers of stable A. thaliana lines; donor AP1-mV, acceptor AP1-mCh or PI-mCh, endogenous promoters, F1 plants; only nuclei with donor and acceptor. (In general: In BRET a luciferase serves as donor, and the signal depends on an acceptor being close.)

The target of test [2] is … (PI) fused to mVenus, expressed in N. benthamiana (Arabidopsis thaliana) (UniProt P48007). The test can be described thus: FRET or BRET; FLIM-FRET with one pattern analysis (OPA) in nuclei of transiently expressing N. benthamiana leaf epidermis cells; donor mVenus fusion, acceptor mCherry fusion; BINDING = relative amplitude of the FRET fraction; nucleoli excluded; FRET efficiency only for nuclei with BINDING above 10%.

Test [3] deals with APETALA3 (AP3) fused to mVenus, expressed in N. benthamiana (Arabidopsis thaliana) (UniProt P35632). The test is described as above.
For test [4], the target named is APETALA1 (AP1) fused to mVenus, expressed in N. benthamiana (Arabidopsis thaliana) (UniProt P35631). The description is as above.
For test [5] the target is unchanged. The description is as above. The source holds these as a separate data set.
Test [6] shares this target. The description is as above. This is another data set of the same source.

Like-named read-outs stand apart in the source and are kept apart here.

Chain of APETALA1 (AP1) fused to mVenus, expressed in N. benthamiana, P35631 1-256 (natural protein; other documents disagree on this pair) (P35631 whole entry, the tested form may be a part): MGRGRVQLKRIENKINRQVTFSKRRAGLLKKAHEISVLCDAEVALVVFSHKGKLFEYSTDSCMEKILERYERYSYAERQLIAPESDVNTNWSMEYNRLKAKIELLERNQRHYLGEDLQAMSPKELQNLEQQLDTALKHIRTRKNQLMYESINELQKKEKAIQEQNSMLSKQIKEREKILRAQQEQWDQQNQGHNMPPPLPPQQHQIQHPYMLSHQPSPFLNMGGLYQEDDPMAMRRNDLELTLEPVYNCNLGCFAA
Chain of APETALA3 (AP3) fused to mVenus, expressed in N. benthamiana (Arabidopsis thaliana) (P35632 whole entry, the tested form may be a part): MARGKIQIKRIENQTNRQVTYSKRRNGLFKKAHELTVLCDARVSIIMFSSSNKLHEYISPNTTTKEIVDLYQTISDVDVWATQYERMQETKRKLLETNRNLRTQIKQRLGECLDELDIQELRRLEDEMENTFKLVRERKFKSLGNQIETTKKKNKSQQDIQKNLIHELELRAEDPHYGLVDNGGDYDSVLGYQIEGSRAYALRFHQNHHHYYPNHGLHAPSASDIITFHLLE
Chain of … (PI) fused to mVenus, expressed in N. benthamiana (Arabidopsis thaliana) (P48007 whole entry, the tested form may be a part): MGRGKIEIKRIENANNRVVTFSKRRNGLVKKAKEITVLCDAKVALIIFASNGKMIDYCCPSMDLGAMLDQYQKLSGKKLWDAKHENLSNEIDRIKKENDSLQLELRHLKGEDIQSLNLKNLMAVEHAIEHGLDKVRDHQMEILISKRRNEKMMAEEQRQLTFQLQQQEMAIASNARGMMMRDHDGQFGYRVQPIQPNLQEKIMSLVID
Chain of APETALA1 (AP1) fused to mVenus, expressed in N. benthamiana (Arabidopsis thaliana) (P35631 whole entry, the tested form may be a part): as the sequence (P35631 whole entry, the tested form may be a part) above
Chain of AP1-mV reporter in Arabidopsis flowers, P35631 1-256 (natural protein; other documents disagree on this pair) (P35631 whole entry): as the sequence (P35631 whole entry, the tested form may be a part) above

In the case of “AP1-mV reporter in Arabidopsis flowers, P35631 1-256 (natural protein; other documents disagree on this pair)”, in test [1], the BINDING worked out at 8.59% and the FRET efficiency was found to be 56.7%.

In test [2], “APETALA1 (AP1) fused to mCherry, expressed in N. benthamiana (from UniProt P35631 1-256) (natural protein)” gave a BINDING of 16.1% and an FRET efficiency of 41.5%. In test [3], this substance returned a BINDING of 16.5% and an FRET efficiency of 43.6%.

Turning to “APETALA1 (AP1) fused to mVenus, expressed in N. benthamiana, P35631 1-256 (natural protein; other documents disagree on this pair)”, the figures for the BINDING in test [4] and in test [6] were 29.9% and 19.2%, respectively. Besides, the FRET efficiency in test [4] was 39%; in test [5] it was 40%.

In test [2], “APETALA3 (AP3) fused to mCherry, expressed in N. benthamiana (from UniProt P35632 1-232) (natural protein)” yielded a BINDING of 36% and an FRET efficiency of 38%.

“…3 (SEP3) fused to mCherry, expressed in N. benthamiana (from UniProt O22456 1-251) (natural protein)”: in test [4], the BINDING was 36.1% and the FRET efficiency is 42.6%.

In test [3], “… (PI) fused to mCherry, expressed in N. benthamiana (from UniProt P48007 1-208) (natural protein)” returned a BINDING of 35.2% and an FRET efficiency of 38%.
